In the assay the target is KRAS G12V (whole mutated KRAS gene linked to the LAMP3 signal peptide, as mRNA) peptide on (human). The assay can be described thus: B13.1 TILs stimulated with APCs loaded with KRAS G12V mRNA, sorted PI- CD3+ CD137+, 10x single-cell V(D)J sequencing; ex vivo sorted cells. As to conditions: chains alpha TRAV23/DV6*01 TRAJ58*01 CDR3:beta TRBV5-6*01 TRBJ2-7*01 CDR3.

B1: B13.1.2 (peptide)
chain 1: CAASEETSGSRLTF
chain 2: CASSWNLQASYEQYF
B1 returned a clonotype frequency among the sorted CD3+ CD137+ cells of 32.8%.

(Values after paper PMC10243368.)
